Measurements published in US20160376372A1 (VACCINEX, published 2016).
Numbering of substitutions follows the chain as printed.

T1: human CD20 antigen (human, UniProt P11836 1-297)
T1 construct: whole, on cells; also called Bp35; B1
T1 sequence (looked up): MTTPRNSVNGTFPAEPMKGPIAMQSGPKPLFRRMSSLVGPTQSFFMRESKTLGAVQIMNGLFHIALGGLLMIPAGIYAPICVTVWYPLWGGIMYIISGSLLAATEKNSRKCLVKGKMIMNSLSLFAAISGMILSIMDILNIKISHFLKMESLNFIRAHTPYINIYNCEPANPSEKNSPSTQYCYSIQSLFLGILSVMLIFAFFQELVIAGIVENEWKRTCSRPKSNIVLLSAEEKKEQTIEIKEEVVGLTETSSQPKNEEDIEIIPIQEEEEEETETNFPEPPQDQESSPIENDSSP

B1: optimized humanized mAb 1237 (antibody, V domains shown)
VH: QVQLVQSGAEVKKPGSSVKVSCKASGYTFTSYNMHWVRQAPGQGLEWIGAIYPGNGDTSYNQKFKGKATITADKSTSTAYMELSSLRSDDTAVYYCARSTYYAGDWNFNNWGQGTLVTVSS
VL: DIQMTQSPSSLSASVGDRVTITCRASSSVSYIHWFQQKPGKAPKPLIYAASSLQSGVPSRFSGSGSGTDYTLTISSLQPEDFATYYCQQWTSNPPTFGGGTKLEIK
notes: detected with anti-human Ig Fc
B2: optimized humanized mAb 1588 (antibody, V domains shown)
VH: B1 VH with S31F
VL: B1 VL
B3: optimized humanized mAb 1692 (antibody, V domains shown)
VH: B1 VH with N109G
VL: B1 VL
B4: optimized humanized mAb 1236 (antibody, V domains shown)
VH: B1 VH with A103G
VL: B1 VL
notes: as for B1
B5: optimized humanized mAb 1589 (antibody, V domains shown)
VH: B1 VH with D57A
VL: B1 VL
B6: optimized humanized mAb 1652 (antibody, V domains shown)
VH: B1 VH with D57A
VL: B1 VL with T91Q
B7: optimized humanized mAb 1590 (antibody, V domains shown)
VH: B1 VH with D57L
VL: B1 VL
B8: optimized humanized mAb 1238 (antibody, V domains shown)
VH: B1 VH with N110D
VL: B1 VL
notes: as for B1

Assays:
[1] = biological target: human CD20 antigen (human) (UniProt P11836); assay: flow cytometry, Daudi cells (CD20 positive)
[2] = biological target: human CD20 antigen (human) (UniProt P11836); assay: flow cytometry, Daudi cells (CD20 positive); remark: listed apart in the source
[3] = biological target: human CD20 antigen (human) (UniProt P11836); assay: flow cytometry, EB1 cells (CD20 positive)
[4] = biological target: human CD20 antigen (human) (UniProt P11836); assay: flow cytometry, EHEB cells (CD20 positive)
human CD20 antigen [5] = biological target: T1, human CD20 antigen; assay: flow cytometry, EHEB cells (CD20 positive)
Experimental: (§1) Binding specificity was assessed by Flow Cytometry, which tabulates Mean Fluorescence Intensities (MFI) of staining on CD20 positive (CD20⁺) and CD20 negative cell lines.

human CD20 antigen [6] = biological target: T1, human CD20 antigen; assay: flow cytometry, EB1 cells (CD20 positive)
Experimental: (§2) Binding specificity was assessed by Fluorometric Microvolume Assay Technology (FMAT, Applied Biosystems 8200 Cellular Detection System) and Flow Cytometry, which tabulates Mean Fluorescence Intensities (MFI) of staining on CD20 positive (CD20⁺) and CD20 negative cell lines.

human CD20 antigen [7] = biological target: T1, human CD20 antigen; assay: flow cytometry, Daudi cells (CD20 positive)
Experimental: as §2

human CD20 antigen [8] = biological target: T1, human CD20 antigen; assay: flow cytometry, Daudi cells (CD20 positive); remark: listed apart in the source
Experimental: as §1

human CD20 antigen [9] = biological target: T1, human CD20 antigen; assay: flow cytometry, CHO.CD20 cells (CD20 positive)
Experimental: as §1

Molecule | Mean Fluorescence Intensity (MFI) (human CD20 antigen [5]) | Mean Fluorescence Intensity (MFI) (human CD20 antigen [6]) | Mean Fluorescence Intensity (MFI) (human CD20 antigen [7]) | Mean Fluorescence Intensity (MFI) (human CD20 antigen [8]) | Mean Fluorescence Intensity (MFI) (human CD20 antigen [9]) | also measured
mAb 271 (rituximab-sequence antibody) |  |  |  |  |  | Mean Fluorescence Intensity (MFI) [1]: 145 MFI; Mean Fluorescence Intensity (MFI) [2]: 941 MFI; Mean Fluorescence Intensity (MFI) [3]: 429 MFI; Mean Fluorescence Intensity (MFI) [4]: 130 MFI
B1 | 161 | 395 | 132 | 1370 | 106 | 
B2 | 338 |  |  | 2070 | 140 | 
B3 | 450 |  |  | 1670 | 137 | 
B4 |  | 409 | 145 |  |  | 
B5 | 345 |  |  | 1030 | 140 | 
B6 | 529 |  |  | 1420 | 135 | 
B7 | 429 |  |  | 1630 | 135 | 
B8 |  | 389 | 114 |  |  | 
